Assays:
[1] = target: 2F5 (broadly neutralizing human monoclonal antibody to the gp41 MPR); test: cell-based or functional assay
[2] = target: 2F5 (broadly neutralizing human monoclonal antibody to the gp41 MPR); test: competition ELISA, peptide serially diluted with 1 ug/ml 2F5 on NE3-captured HBsAg-MPR particles

Molecule | neutralization activity of 2F5 adsorbed out, SF162.LS virus (TZM-B1 cells, luciferase) [1] | neutralization activity of 2F5 adsorbed out, YU2.5G3 virus (TZM-B1 cells, luciferase) [1] | fold enhancement of 2F5 binding to HBsAg-MPR particle [2]
HBsAg-MPR particles (HBsAg with the HIV-1 gp41 membrane proximal region at the C-terminus) | 21% | 10% | –
NEQELLELDKWASLWN [16-mer peptide harboring the 2F5 epitope (…)] | – | – | 2 fold
